# Assay results reported in patent US20140234868A1, “USE FOR GLYCOLIPOPROTEIN GINTONIN, ISOLATED AND IDENTIFIED FROM GINSENG, AS A NATURAL MEDICAL-PLANT DERIVED LIGAND” (KONKUK UNIVERSITY INDUSTRIAL COOPERATION CORP., priority 2011, published 2014).
# What was measured:
# HUVECs [1] = assay: HUVEC migration, Boyden chamber; format: cell-based, human; conditions: 70~80 min, 37° C.
# Protocol: To measure the effect of gintonin on cell migration, a Boyden chamber (Neuro Probe Inc., Gaithersburg, Md., USA) assay was employed (Kim et al. Biol Pharm Bull 30: 1674-1679, 2007; Lee et al. Am J Physiol Cell Physiol 278:C612-C618, 2000).
# In the Boyden chamber (48 wells) of two compartments separated by a collagen-coated polycarbonate microporous membrane (8-μm pores), gintonin in M199 (0.1% BSA contained) was placed onto the wells of lower compartment while a HUVEC suspension was added to the wells of the upper compartment (5×10^4 cells/well). During incubation at 37° C. for 70˜80 min, the cells were allowed to migrate through the membrane into the lower compartment. Then, the chamber was disassembled, and the cells on the membrane was fixed and stained with Diff Quik (Sysmex, Kobe, Japan), and mounted on a slide.
# HUVECs [2] = assay: Tubular formation of HUVECs on Matrigel; format: cell-based, human; conditions: gintonin 30 μg/ml, 4 hrs
# Protocol: To examine the effect of gintonin on angiogenesis, formation of vascular tube-like structures on Matrigel was compared between the control and the gintonin-treated group (Kim et al. Biol Pharm Bull 30: 1674-1679).
# Briefly, cells were incubated for 6 hrs in M199 (1% FBS). After trypsinization, the cells were suspended in M199 (1% FBS), and seeded (2×10^5 cells/well) to 24-well plates coated with Matrigel (250 μl/well).
# The cells were incubated at 37° C. for 4 hrs in M199 (1% FBS) containing gintonin (30 μg/ml), and observed for tubular formation by inverted fluorescence microscopy (AxioVert200, Carl Zeiss).
# [3] = system: LPA receptor-null B103 cells (empty vector); assay: Intracellular free Ca2+ (Fura-2AM) in B103 cells transfected with empty vector; format: cell-based, rat; conditions: gintonin 1 μg/ml; empty vector B103 cells
# Source text: LPA family receptors are endogenous to cells of most organs. B103 rat neuroblastoma cells, known as LPA receptor-null cells (Valentine et al., Biochim Biophys Acta 1780. 597-605) were transiently transfected with a plasmid (vector) carrying one of genes coding for LPA1(edg-2), LPA2(edg-4), LPA3(edg-7), LPA4, LPA5 and LPA6 receptors or a plasmid carrying none of them (empty vector). Two or three days after transfection, the cells are suspended, and made permeable. Then, the permeable cells are treated with Fura-2AM, a fluorescent dye binding to calcium, and then with gintonin, followed by spectrofluorephotometry to examine whether gintonin induces an increase in intracellular free Ca^2+ level. […]
# Briefly, Fura 2-AM loaded cells were diluted with an experimental medium to a final density of 2˜4×10^6 cells/mL, and transferred to polystyrene cuvettes (Elkay Ultra-VU). […] Emission was detected at 510 nm Excitation and emission slit widths were 5 nm Background calibration was performed as described by Jørgensen et al. […]
molecule,measurement,setting,value
gintonin: ginseng-derived glycolipoprotein; structural protein of ginseng major latex-like protein (MLP151) and ribonuclease-like storage proteins; crude gintonin used in tests (protein) chain 1: MGLTGKLICQTGIKSDGDVFHELFGTRPHHVPNITPANIQGCDLHEGEFGKVGSVVIWNYSIDGNAMIAKEEIVAIDEEDKSVTFKVVEGHLFEEFKSIVFSVHVDTKGEDNLVTWSIDYEKLNESVKDPTSYLDFLLSVTRDIEAHHLPK chain 2: RSDYPWAMFALRLQWPAGFCEVNNACDTKSLLNTFTIHGLYPYNAKGTPALYCDGTAFDVNSVSDFLAEMHLAWPSHETNTEDIQFWEHEWKKHGRCSEALLKQTDYFRTALAFRKAFDIVGLLNQEGIYPNNDLYRPKMIKEAIKKHLNAVPEIDFTKNENSEYVLTDINVCVNQQATRFVDCPTDDATDDYRLKFVRLPSKMKFADPRTNSII,cell migration,HUVECs [1],promoted cell migration in a concentration-dependent manner
same,tubular formation,HUVECs [2],promoted tubular formation
same,increase in intracellular calcium level,[3],22.7 ± 4.1 nM
